Source: patent publication US20220281931A1 (published 2022)

B1: SIAH1^SBD (tag-cleaved) (enzyme)
chain: VANSVLFPCKYASSGCEITLPHTEKADHEELCEFRPYSCPCPGASCKWQGSLDAVMPHLMHQHKSITTLQGEDIVFLATDINLPGAVDWVMMQSCFGFHFMLVLEKQEKYDGHQQFFAIVQLIGTRKQAENFAYRLELNGHRRRLTWEATPRSIHEGIATAIMNSDCLVFDTSIAQLFAENGNLGINVTISMC

Experiments:
SIAH1^SBD (tag-cleaved) = molecular target: B1; experiment: ITC
BCL6^5-360 (ITC) = BCL6^5-360 (ITC) (UniProt P41182 5-360); experiment: ITC; also printed as Kd = 1.6 uM

| Binder | Kd (SIAH1^SBD (tag-cleaved)) | Kd (BCL6^5-360 (ITC)) |
| --- | --- | --- |
| EYSRPTLEVSPNVCHSNIYS [BCL6^241-260 peptide] | 6.3 µM |  |
| B1 |  | 1.57 µM |
